Biological target: T1, GST-SH3^SGEF (amino acids 789–850) (UniProt Q96DR7 789-850)
T1 sequence (looked up): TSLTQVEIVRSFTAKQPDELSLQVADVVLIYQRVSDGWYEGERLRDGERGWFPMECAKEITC
Assay: pull-down

binding result: binds
B1: ICAM1–intracellular tail peptide, biotinylated (peptide)
peptide: GRQRKIKKYRLQQAQKGTPMKPNTQATPP
HELM: PEPTIDE1{[O=C1N[C@H]2[C@H](CS[C@H]2CCCCC(=O)[*:2])N1].G.R.Q.R.K.I.K.K.Y.R.L.Q.Q.A.Q.K.G.T.P.M.K.P.N.T.Q.A.T.P.P}$$$$V2.0
SMILES: CC[C@H](C)[C@H](NC(=O)[C@H](CCCCN)NC(=O)[C@H](CCCNC(=N)N)NC(=O)[C@H](CCC(N)=O)NC(=O)[C@H](CCCNC(=N)N)NC(=O)CNC(=O)CCCC[C@@H]1SC[C@@H]2NC(=O)N[C@@H]21)C(=O)N[C@@H](CCCCN)C(=O)N[C@@H](CCCCN)C(=O)N[C@@H](Cc1ccc(O)cc1)C(=O)N[C@@H](CCCNC(=N)N)C(=O)N[C@@H](CC(C)C)C(=O)N[C@@H](CCC(N)=O)C(=O)N[C@@H](CCC(N)=O)C(=O)N[C@@H](C)C(=O)N[C@@H](CCC(N)=O)C(=O)N[C@@H](CCCCN)C(=O)NCC(=O)N[C@H](C(=O)N1CCC[C@H]1C(=O)N[C@@H](CCSC)C(=O)N[C@@H](CCCCN)C(=O)N1CCC[C@H]1C(=O)N[C@@H](CC(N)=O)C(=O)N[C@H](C(=O)N[C@@H](CCC(N)=O)C(=O)N[C@@H](C)C(=O)N[C@H](C(=O)N1CCC[C@H]1C(=O)N1CCC[C@H]1C(=O)O)[C@@H](C)O)[C@@H](C)O)[C@@H](C)O
